In patent US20010034326A1 (UNIVERSITY OF NEW MEXICO, published 2001):
Read-outs that look alike come from different tables or passages of the source. Bridge positions count the residues as written; N and C are the ends. Ends that are not written are not given here.

B1: consensus peptide CLLRMRSIC (SEQ ID NO: 1), cyclized in the disulfide-linked form (peptide)
peptide: CLLRMRSIC
modifications: disulfide 1-9
notes: Synthesized by Biopeptide; consensus derived from phage display on ICAM-1

Columns and labels:
[1] = target: T1, ICAM-1 expressed on cells (JY cells; stimulated endothelial cells) (UniProt P05362 28-532, limits assumed); experiment: cell-based or functional assay
[2] = target: T1, ICAM-1 expressed on cells (JY cells; …); experiment: cell-based or functional assay; remark: listed apart in the source
[3] = target: T1, ICAM-1 expressed on cells (JY cells; …); experiment: cell-based or functional assay; remark: listed apart in the source
[4] = target: T1, ICAM-1 expressed on cells (JY cells; …); experiment: cell-based or functional assay; remark: listed apart in the source
[5] = target: T2, ICAM-1 (intracellular adhesion molecule 1), as used in the ELISA of monovalent ICAM-1 binding (human, UniProt P05362 28-480, limits assumed); experiment: ELISA of monovalent ICAM-1 binding; for example inhibition of 84H10 binding to ICAM-1
T2 construct: also called purified ICAM-1
T2 sequence (P05362 28-480 limits assumed): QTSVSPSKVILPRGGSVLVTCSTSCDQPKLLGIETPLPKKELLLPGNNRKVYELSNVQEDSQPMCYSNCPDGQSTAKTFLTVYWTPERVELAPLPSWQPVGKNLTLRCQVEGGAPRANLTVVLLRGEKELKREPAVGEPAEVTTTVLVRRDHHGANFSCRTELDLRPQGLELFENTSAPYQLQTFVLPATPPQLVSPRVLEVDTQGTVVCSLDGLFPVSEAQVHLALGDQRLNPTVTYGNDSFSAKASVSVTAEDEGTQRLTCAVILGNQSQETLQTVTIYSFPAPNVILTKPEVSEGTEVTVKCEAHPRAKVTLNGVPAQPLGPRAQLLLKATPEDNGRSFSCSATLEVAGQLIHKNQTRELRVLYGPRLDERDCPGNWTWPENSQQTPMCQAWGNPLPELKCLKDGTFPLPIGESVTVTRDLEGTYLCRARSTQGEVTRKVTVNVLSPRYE

T1 sequence (P05362 28-532 limits assumed): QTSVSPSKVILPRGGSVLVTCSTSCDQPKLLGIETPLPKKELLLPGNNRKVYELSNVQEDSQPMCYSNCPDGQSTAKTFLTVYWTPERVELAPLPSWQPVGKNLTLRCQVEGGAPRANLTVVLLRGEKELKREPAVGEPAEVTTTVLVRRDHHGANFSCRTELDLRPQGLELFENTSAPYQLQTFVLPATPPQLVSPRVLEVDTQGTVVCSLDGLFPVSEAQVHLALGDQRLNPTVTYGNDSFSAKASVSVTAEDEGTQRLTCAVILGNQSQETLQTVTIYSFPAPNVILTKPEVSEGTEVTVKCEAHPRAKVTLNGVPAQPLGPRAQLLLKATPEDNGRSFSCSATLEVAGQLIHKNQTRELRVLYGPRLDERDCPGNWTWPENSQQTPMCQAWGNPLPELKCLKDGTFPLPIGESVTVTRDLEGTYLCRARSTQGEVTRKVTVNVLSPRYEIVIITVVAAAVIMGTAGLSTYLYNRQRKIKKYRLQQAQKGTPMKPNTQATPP

Row | Binder | Percent Inhibition [1] | Percent JY Aggregation [1] | Percent Inhibition [3] | Percent JY Aggregation [3] | further results
1 | CLRLSRIMC (disulfide 1-9) [randomized cyclic peptide CLRLSRIMC (SEQ ID NO: 56)] | 4 percent | 74 percent | -3.6 percent | 57 percent | Cells/mm^2, firm attachment of neutrophils to stimulated endothelial cells in a parallel plate flow chamber [2]: 617 cells/mm^2; Percent Inhibition of firm attachment of neutrophils to stimulated endothelial cells [2]: 25 percent
2 | CALRMRSIC (disulfide 1-9) [CALRMRSIC (SEQ ID NO: 34), cyclic disulfide-linked peptide] | 7 percent | 71 percent | – | – | –
3 | CLLRMKSAC (disulfide 1-9) [CLLRMKSAC (SEQ ID NO: 46), cyclic disulfide-linked peptide] | – | – | 90 percent | 6 percent | Cells/mm^2, firm attachment of neutrophils to stimulated endothelial cells in a parallel plate flow chamber [2]: 283 cells/mm^2; Percent Inhibition of firm attachment of neutrophils to stimulated endothelial cells [2]: 66 percent
4 | CLLKMRSAC (disulfide 1-9) [CLLKMRSAC (SEQ ID NO: 45), cyclic disulfide-linked peptide] | – | – | 94 percent | 3 percent | –
5 | CLLRMRSLC (disulfide 1-9) [CLLRMRSLC (SEQ ID NO: 47), cyclic disulfide-linked peptide] | – | – | -12 percent | 61 percent | –
6 | CLLRARSIC (disulfide 1-9) [CLLRARSIC (SEQ ID NO: 37), cyclic disulfide-linked peptide] | 5 percent | 72 percent | – | – | –
7 | CILRMRSAC (disulfide 1-9) [CILRMRSAC (SEQ ID NO: 43), cyclic disulfide-linked peptide] | – | – | 92 percent | 4 percent | –
8 | CLARMRSIC (disulfide 1-9) [CLARMRSIC (SEQ ID NO: 35), cyclic disulfide-linked peptide] | 9 percent | 69 percent | – | – | –
9 | CLLRMRSVC (disulfide 1-9) [CLLRMRSVC (SEQ ID NO: 48), cyclic disulfide-linked peptide] | – | – | 92 percent | 4 percent | –
10 | B1 | 46 percent | 41 percent | 45 percent | 30 percent | IC50, inhibition of JY cell aggregation [4]: 500 µM; IC50 for cell aggregation [4]: 800 µM; IC50 [5]: 0.25 µM; Cells/mm^2, firm attachment of neutrophils to stimulated endothelial cells in a parallel plate flow chamber [2]: 439 cells/mm^2; Percent Inhibition of firm attachment of neutrophils to stimulated endothelial cells [2]: 47 percent
11 | CLVRMRSAC (disulfide 1-9) [CLVRMRSAC (SEQ ID NO: 41), cyclic disulfide-linked peptide] | – | – | 0 percent | 55 percent | –
12 | CLLRMRSAC (disulfide 1-9) [CLLRMRSAC (SEQ ID NO: 40), cyclic disulfide-linked peptide] | 61 percent | 29 percent | – | – | –
13 | CLLRMASIC (disulfide 1-9) [CLLRMASIC (SEQ ID NO: 38), cyclic disulfide-linked peptide] | 11 percent | 68 percent | – | – | –
14 | CVLRMRSAC (disulfide 1-9) [CVLRMRSAC (SEQ ID NO: 42), cyclic disulfide-linked peptide] | – | – | 56 percent | 24 percent | –
15 | CLIRMRSAC (disulfide 1-9) [CLIRMRSAC (SEQ ID NO: 44), cyclic disulfide-linked peptide] | – | – | 93 percent | 4 percent | –
16 | CLLRMRAIC (disulfide 1-9) [CLLRMRAIC (SEQ ID NO: 39), cyclic disulfide-linked peptide] | 27 percent | 56 percent | – | – | –
